Data reported in US20230242673A1 (published 2023).

Legend:
[1] = target: T1, original PCSK9 (PCSK9 (human) recombinant protein, Abnova Cat No: H00255738-P01) (UniProt Q8NBP7 31-692); experiment: ELISA; 2nd experiment
[2] = target: T1, original PCSK9 (PCSK9 (human) …); experiment: ELISA; 1st experiment
[3] = target: T1, original PCSK9 (PCSK9 (human) …); experiment: ELISA; mean of two experiments, ±0.028
[4] = target: T1, original PCSK9 (PCSK9 (human) …); experiment: ELISA; mean of two experiments, ±0.000
[5] = target: T1, original PCSK9 (PCSK9 (human) …); experiment: ELISA; mean of two experiments, ±0.014

T1 sequence (Q8NBP7 other isoform, or with tags, fused parts or gaps): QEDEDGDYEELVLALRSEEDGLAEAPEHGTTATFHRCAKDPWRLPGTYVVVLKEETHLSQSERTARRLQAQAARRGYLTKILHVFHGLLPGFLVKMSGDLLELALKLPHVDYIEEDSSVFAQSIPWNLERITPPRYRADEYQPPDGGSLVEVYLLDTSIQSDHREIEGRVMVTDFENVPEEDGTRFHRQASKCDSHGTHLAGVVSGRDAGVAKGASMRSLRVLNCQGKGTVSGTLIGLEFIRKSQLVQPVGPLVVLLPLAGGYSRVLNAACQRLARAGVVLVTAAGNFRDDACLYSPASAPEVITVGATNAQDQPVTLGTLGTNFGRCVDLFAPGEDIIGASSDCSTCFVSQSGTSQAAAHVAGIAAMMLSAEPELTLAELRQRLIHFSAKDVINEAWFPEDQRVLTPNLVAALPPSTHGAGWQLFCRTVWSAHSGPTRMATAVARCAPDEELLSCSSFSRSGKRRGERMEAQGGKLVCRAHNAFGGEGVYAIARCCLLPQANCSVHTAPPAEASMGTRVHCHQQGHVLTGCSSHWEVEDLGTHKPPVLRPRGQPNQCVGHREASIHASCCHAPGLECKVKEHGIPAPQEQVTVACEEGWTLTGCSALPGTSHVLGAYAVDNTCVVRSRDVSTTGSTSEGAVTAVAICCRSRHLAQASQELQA

EC50 [1] [µg/mL] | EC50 [2] [µg/mL] | EC50 [3] [µg/mL] | EC50 [4] [µg/mL] | EC50 [5] [µg/mL] | Binder
0.4 | 0.36 | 0.38 |  |  | ch7D1 IgG (antibody, V domains shown) VH: EVKLVESGAELVRSGASVKLSCTASGFNIKDYYMHWVKQRPEQGLEWIGYIDPENGDTEYAPKFQGKATMTADTSSNTAYLQLSSLTSEDTAVYYCRSSPFTYWGQGTLVTVSA VL: not shown
0.13 | 0.13 |  | 0.13 |  | hz7D1.11 IgG (antibody, V domains shown) VH: QVQLVQSGAEVKKPGASVKVSCKASGFNIKDYYMHWVRQAPGQGLEWIGYIDPENGDTEYAPKFQGRATMTADTSISTAYMELSRLRSDDTAVYYCRSSPFTYWGQGTLVTVSS VL: DVVMTQSPLSLPVTLGQPASISCKSSQSLLDSDGKTYLNWLQQRPGQSPRRLIYLVSKLDSGVPDRFSGSGSGTDFTLKISRVEAEDVGVYYCWQGTHFPQTFGGGTKVEIKR
0.17 | 0.19 |  |  | 0.18 | hz7D1.22 IgG (antibody, V domains shown) VH: QVQLVQSGAEVKKPGASVKVSCKASGYTFKDYYMHWVRQAPGQGLEWMGYIDPENGDTEYAPKFQGRVTMTADTSISTAYMELSRLRSDDTAVYYCRSSPFTYWGQGTLVTVSS VL: DVVMTQSPLSLPVTLGQPASISCKSSQSLLDSDGKTYLNWFQQRPGQSPRRLIYLVSKLDSGVPDRFSGSGSGTDFTLKISRVEAEDVGVYYCWQGTHFPQTFGGGTKVEIKR
